Experimental data taken from the supplement of paper PMC12042874.
± gives the uncertainty stated by the source.

Test: amyloid nucleation score (Sup35N fusion, yeast selection) (log enrichment); library NNK1; higher = more nucleation; inactive = no reads after selection
How it was run: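 Output and input plasmid inserts were sequenced by Illumina after psi-negative yeast carrying Sup35N fused to peptides of 20 random codons had been induced 24 hours with 100 μM copper sulfate and grown 7 days at 30°C on medium lacking adenine and uracil. The nucleation score is the DiMSum log enrichment of output over input reads, centred on the mode score of non-aggregating sequences. Sequences with under 100 input reads were excluded.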

Row | Substance | amyloid nucleation score
1 | PVQDGSLGCQSHYCSRYCYV | -0.129 ± 0.46
2 | PVSDLVIFLQLRFRNTCMLP | 0.952 ± 0.92
3 | PWQRSSCLGTLVLVTNYDRY | 0.058 ± 0.44
4 | PWTSHVNFRSSGYLSNCLNF | -0.145 ± 0.64
5 | PWYKSLSRPSGGKTVLLRNM | -0.113 ± 0.43
6 | PYDYRI | -0.503 ± 0.46
7 | PYVGPLMNFYHSMGMWWMYN | inactive
8 | QALYSCDDYRGYRTSQCPRS | -1.13 ± 1.9
9 | QARSGPTPLTTWRTRQVTLG | -0.178 ± 0.51
10 | QCDVS | inactive
11 | QCGEICLCRSAGVVHSPRGW | -0.513 ± 0.55
12 | QCIPLLAGSYCAQML | 0.914 ± 0.14
13 | QCVFYMWVSFEELK | 0.418 ± 0.97
14 | QDLICVFMGCVIS | 7.942 ± 0.044
15 | QFESIGCVEWYMFGIREVFS | -0.318 ± 0.47
16 | QFRICVAPEFFGRKSLRASD | 0.445 ± 1.2
17 | QFSLPLCGYKRRHNGSFAEM | -1.14 ± 2.1
18 | QFYHLYCHKIYCFRGEFRRR | 1.83 ± 0.46
19 | QGAGAGKITVGTVGVGGTEL | inactive
20 | QGIAACSAGSLDYVYGRWKG | 3.91 ± 0.09
21 | QGISPLRWAVLYRFMYGCVR | -0.209 ± 0.57
22 | QGRGMDNVIYVEVRMRDCRR | 2.04 ± 0.24
23 | QGSCCD | -0.815 ± 0.86
24 | QGSDSSNEATTAPLCRLRIW | 1.11 ± 0.94

Row | Substance | amyloid nucleation score
25 | QIAVWPSYFSGDIGDMSRKG | 0.017 ± 0.56
26 | QIIPTRFGWFSNRGCVLGSY | 1.08 ± 0.38
27 | QIRRGCRYFW | -0.856 ± 1.1
28 | QIVCGSMWMLDKI | -0.297 ± 0.49
29 | QIYASKWPYEIEFKNFMRVA | 0.247 ± 0.42
30 | QIYVIICLMFSDIGMHIAYV | inactive
31 | QKSIDLYFEKRHTISTQNR | -0.455 ± 0.56
32 | QLEFVWLILTYHEGHYRIGK | inactive
33 | QLPCDRISSDALYRMWGLV | -1.41 ± 0.91
34 | QLQTSQRV | inactive
35 | QLRYKIVMHRQSEHKPSLLN | -0.855 ± 1.5
36 | QLSRSVWRRMRRQQKHPLTG | 1.62 ± 0.81
37 | QLVGFVVPRRSSPGVHTGEC | 1.21 ± 0.53
38 | QMDMCDYERFYLA | inactive
39 | QMDVRDFYSRVSGGGGYQMH | -0.074 ± 0.61
40 | QMLIAGGAKTGTPLFPGASS | 0.358 ± 0.5
41 | QNDLERWAEGQASKMLG | 0.433 ± 0.4
42 | QNFNFSWVYTFYTRICTLYF | 5.872 ± 0.047
43 | QNNCSPARPTAHNYVGGHAT | 0.656 ± 1
44 | QNYSLNWSITGLVRLLSRIC | -0.73 ± 0.55
45 | QQRLWRNAWTDMARKVSTSR | 0.452 ± 1.2
46 | QRARIINRKHV | 0.214 ± 0.74
47 | QRFHFLNRL | -0.411 ± 1.1
48 | QRMACWYLDKLESLSKLACM | 0.612 ± 0.82

Row | Substance | amyloid nucleation score
49 | QRVIAGPPNRAGKAYQALSR | 0.107 ± 0.53
50 | QSISYR | -0.956 ± 0.7
51 | QSLSLVVPDIVMIKTPN | inactive
52 | QSPKQILWR | 1.11 ± 0.63
53 | QSSSLHKHSFTHVVSQNEGG | 0.543 ± 0.26
54 | QTFMHSCEFRVN | -0.347 ± 0.66
55 | QTWLTLDQFVLTFGHKDNLG | 0.853 ± 0.51
56 | QVFGFYTMEKVYHVGGIASV | -0.296 ± 0.3
57 | QVGPVREHEHKVLAGLSMDW | 0.498 ± 0.38
58 | QVLVYNDFRYFEFHRDVFLR | 8.45 ± 0.073
59 | QVNFNRRFNTQAIFNLSGVP | 0.947 ± 0.71
60 | QVRLVNWVCRM | 3.71 ± 0.059
61 | QVTNRMRLRLMYR | 0.699 ± 0.37
62 | QWKGSFSSV | -0.873 ± 1.1
63 | QWSDS | -0.267 ± 0.41
64 | QYAIFRLSKTWIIHSMDKNA | 0.269 ± 0.21
65 | QYLFSGLEEMPIVTVLS | -0.393 ± 0.31
66 | QYSHDRRFLPGMVHVRLFLE | 0.662 ± 0.38
67 | QYYFARIREFLSIQFIAWYC | 0.172 ± 0.32
68 | RACFRVIYWFSLLDKVGETV | -0.427 ± 1.1
69 | RAISVLPIMSVRAH | 0.085 ± 0.25
70 | RALFSIHNTAEGLSERWAAL | 0.58 ± 1.2
71 | RAQYYYICRWRYYTWPVPR | -0.515 ± 1
72 | RARDIKWGCLFVCLTCMSTG | 3.76 ± 0.067

Row | Substance | amyloid nucleation score
73 | RARGAIYTVT | -0.894 ± 2.4
74 | RAVGSDWGKVVFLLMNSEES | 0.212 ± 0.31
75 | RCASHKTQYKRCGGVDEQEA | 1.96 ± 0.58
76 | RCCIIDLFS | 4.87 ± 0.066
77 | RCDRTGQRRALDRGSCFLVE | -0.46 ± 1.1
78 | RCDSMSCTVYCEGNS | -1.03 ± 1.5
79 | RCKELDCSPDSGITVTRSLI | 1.12 ± 0.63
80 | RCNDAFTFTCRPGWMWKWGK | 1.75 ± 0.18
81 | RCNSSSIEWTVCILFDLLFY | -0.122 ± 1
82 | RCSGYRFRFTVRRTSLCFVK | -0.447 ± 1.2
83 | RCVKASLYDGEYMKLMDGVM | -0.407 ± 0.45
84 | RDAEWTMIIIIARNQMKAFS | -0.162 ± 0.4
85 | RDAFYRGRTRFNQRRYMYRR | -0.335 ± 0.53
86 | RDASRVVCMRPRWGPFQVVV | 0.222 ± 0.69
87 | RDCWQ | -0.571 ± 0.3
88 | RDIRWITQEADGYLELRHSF | -0.085 ± 0.73
89 | RDLDSSILNNFFDICTFWNK | -0.305 ± 0.5
90 | RDLTKSDLMSVNAYMVIYRW | 0.382 ± 0.31
91 | RDMRLLAFRLPIRRFTRGST | -0.097 ± 0.44
92 | RDNKVPVR | -0.537 ± 1.9
93 | RDPVLDVGLRCMWHNGGPFG | -0.035 ± 1.4
94 | RDWTRGHACRYCSWQWVARG | 0.529 ± 0.88
95 | REDAYR | -0.429 ± 0.91
96 | REGLTFPRVLPIWHLFVSSD | -0.139 ± 0.32

Row | Substance | amyloid nucleation score
97 | RELLGGVRNRLVYR | -0.192 ± 0.23
98 | RESASSNGYVYILCMQRVPR | 0.102 ± 0.34
99 | RFASISYVGTNSGLDVQSNW | 0.171 ± 1.2
100 | RFGGD | -0.388 ± 0.57
101 | RFHCYWTPRTLSMASSTPWM | 0.47 ± 0.45
102 | RFISCMFFKYIPLQCFVLGR | 0.548 ± 0.39
103 | RFISVMSLSLLNNNFIEAHV | 0.55 ± 0.6
104 | RFLGSWCSIYIGRCVMFDRG | 1.13 ± 0.28
105 | RFLLLPAHPGPGVSMVYRYL | 0.077 ± 0.9
106 | RFNWFL | -0.285 ± 0.86
107 | RFNYVYFINRNMNEPRRGSL | 6.452 ± 0.061
108 | RFSITSGNYFNN | -0.971 ± 0.79
109 | RFSQWLPFWSVGGELQSCFC | 0.239 ± 0.68
110 | RFVWKDDTHQAIGTFLMSQG | 1 ± 0.54
111 | RGAQARSQCCMVVMSVESRS | 0.628 ± 0.46
112 | RGCPAFDNVTSYDESSEWSY | 0.365 ± 0.62
113 | RGCSFFWCPLCRGYGGCLCC | 0.482 ± 0.74
114 | RGGMIPGYTPAMYHWMLFKS | 0.185 ± 0.47
115 | RGNWIRS | -0.533 ± 0.77
116 | RGSEPAIGLMMVLP | 0.458 ± 0.41
117 | RGSNAMDYSEVFCWMYNDLL | 1.11 ± 0.58
118 | RGYSGTTTHAATATKLS | 1.56 ± 0.78
119 | RHALGLFRSGLGMDMDDNGS | inactive
120 | RHCPLAVFRKSPLLAIGKFG | -0.685 ± 0.66

Row | Substance | amyloid nucleation score
121 | RHGVRYSKLELINTREFYNE | -0.246 ± 0.9
122 | RHSFGLFVSRLVRFREDGYY | -0.508 ± 0.52
123 | RHYGGAFQRLYRMSGPMT | -1.05 ± 0.96
124 | RICGGTSFDSRNGLKLGRKG | 0.034 ± 0.64
125 | RIFLLVTHVACAMPLFHKTR | 0.83 ± 0.75
126 | RIGRKDLLFWVPTCRHVLLL | 0.416 ± 0.28
127 | RIGVLNCWEVWADVTQREHL | -0.769 ± 1.1
128 | RINMGNYSLKWNMFTKVSLK | -0.227 ± 0.35
129 | RINVSGWQLQATLSFLLAFS | 0.289 ± 0.5
130 | RIRLVCHCPFSYRLAVPLSE | 3.99 ± 0.1
131 | RISTCIEILYDS | -0.587 ± 0.37
132 | RIVSSFLLSVVGCGMEVVRV | 0.349 ± 0.63
133 | RIYRFLKLLIRGGVISVARY | -0.758 ± 1.9
134 | RKFGPMG | 0.848 ± 1
135 | RKGSVSQRDYSIDYWGFCRC | 1.37 ± 0.22
136 | RKLFDCGINACSLRYVTSYR | inactive
137 | RKLFYG | -0.017 ± 0.39
138 | RKLLSISL | 0.22 ± 0.71
139 | RKNTDVTENEYRWAIF | -0.522 ± 1.9
140 | RKPVVGSFIFTTFCKSYVDV | 2.9 ± 0.1
141 | RKSDEGMKSPIGREIMGKSM | 0.431 ± 0.9
142 | RKSVFNTLLFVE | 0.569 ± 0.33
143 | RKYEGGRAKVWHGPCSVS | 1.07 ± 0.76
144 | RLASYHITVYRHTRSIVQ | 0.612 ± 0.29

Row | Substance | amyloid nucleation score
145 | RLCIVLSRHMPYTDRMLVMP | 0.259 ± 0.26
146 | RLFHIGGRGVRYYRLDVAMH | -0.264 ± 1.2
147 | RLFLKPAQWPNH | 0.562 ± 0.67
148 | RLGRNVNEHRVPLVLACVED | 0.964 ± 0.93
149 | RLIENFGPHYRSSPVFDVVV | 1.33 ± 0.79
150 | RLIYRCLKSGCVFPWLSRMS | -0.571 ± 1.1
151 | RLLGLHWIT | 1.5 ± 0.54
152 | RLMNRFMPKSLLLLLPVFVR | inactive
153 | RLNVQLAGSVGVVWFICNWA | 5.98 ± 0.056
154 | RLPWLRAQNANLVLLLVNRR | 4.9 ± 0.074
155 | RLRVVL | -0.537 ± 0.64
156 | RLSHKNGVCTLAFIYVPDNA | inactive
157 | RLSSPVSI | 0.028 ± 0.68
158 | RLSSRVIRKNFDYQTFCHED | 0.414 ± 0.34
159 | RLTFVYHRMERVKKDYCS | inactive
160 | RLTLLRLVLV | 0.945 ± 0.51
161 | RLVSFKCFCFLFLIDFMQGV | 0.495 ± 0.45
162 | RLYRWPIWWWVSLSEMGISQ | -0.205 ± 0.35
163 | RLYWWDVMTSNMFVMAFRSR | inactive
164 | RMFCPHCDYLVSVFSWNPRC | 1.54 ± 0.57
165 | RMFWANLQVSVNFGDKRVKY | 4.13 ± 0.091
166 | RMIDMGTDTVFCLMSFARIN | -0.354 ± 0.22
167 | RMIIYNKYRCNSYLTNMGFG | 2 ± 0.34
168 | RMPRCKVFSVFSLLHAQY | 1.35 ± 0.9
